Reference: the supplement of paper PMC9170038

Test system: MS2 coat protein
Experiment: apparent KD of MS2 coat protein; designed switch direction (-1 OFF switch, 1 ON switch): -1; higher = weaker reporter binding
In short: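 Stalled E. coli RNA polymerase transcribed designed RNA switches on Illumina chips, which were then titrated with SNAP-549-labelled MS2 coat protein, doubling from 0.7 or 1.5 nM to 3 µM. Steps lasted from 0.8–1.5 h at the lowest concentration to 10–20 min at the highest. The apparent KD is each design's median over clusters of curve-fitted normalised fluorescence.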

[1] = Eterna round: R95, input ligand: microRNA oligo, concentration not stated
[2] = Eterna round: R95, input ligand: FMN 200 uM
[3] = Eterna round: R95, input ligand: none
[4] = input ligand: microRNA oligo, concentration not stated

Sequence | apparent KD of MS2 coat protein [1] [nM] | apparent KD of MS2 coat protein [2] [nM] | apparent KD of MS2 coat protein [3] [nM] | apparent KD of MS2 coat protein (input ligand: FMN 200 uM) [nM] | apparent KD of MS2 coat protein [4] [nM] | apparent KD of MS2 coat protein (input ligand: none) [nM]
ACUAGAUGAGGAUAUGCAUAUUUUCGUGUUCUUCUAGAUUAACAUGAGGAUCACCCAUGUAGAAGGCGUCAUUU [Exclusion 2 - 16] (puzzle: Exclusion 2) | 15.7 |  |  |  |  | 
AAGAAACAUGAGGAUCACCCAUGUGAGGAUAUGAAAAAGAAAAGAAAAGAAAGAAUAAUCAGAAGGCACAAAGG [Mat - Mod of Hog D11] (puzzle: Exclusion 1) | 34.3 | 50.7 | 40.1 |  |  | 
AUAACAAGCUUUUUGCUCGUCGUAUAUGACGCUCGAGUCACAUGAGGAUCACCCAUGUCUUCCUGUUUGAUUGUUGA [JR_SV3TOV2_Sub056] (puzzle: Sensor v3, turn-off variant 2) | 122 | 148 | 177 |  |  | 
AAUAAGAAGUAAGGAUAUCUGAAAGGAAGUGUAAGAGAAGGUACGGUGACGUCAGAACGACAUGAGGAUCACCCAUGUAAAGAA [PowerStrip EXNG 1.11] (Eterna round: R96, puzzle: Exclusion NG 1) |  |  |  | 79 | 69.6 | 93.9
CCCUCACAUGAGGAUCACCCAUGUCAGGAUAUCUCAGUGCGUCCACACGGACACAUCAAGAGAAGGGACAAAAC [Maceedesbi] (Eterna round: R97, puzzle: Exclusion 1) |  |  |  | 26.3 |  | 18.6
AGAUGUAGAUACCGAUCCUACAUGAGGAUCACCCAUGUAGCUAGACGUGCUCGCGUCGCUCGUCAGACUACCAGUAG [salish99_TOv1_r3_089] (puzzle: Sensor v3, turn-off variant 1) | 199 | 267 | 259 |  |  | 
UUUAGUCGUGACAUGGGUGACAUGAGGAUCACCCAUGUUACAAGCUUGUUGCUCGUCUUAUAAUUAACCCAUGUCAC [LRO Sensor-off var1-16 mod of Stov1-13-A1 by Brourd] (Eterna round: R97, puzzle: Sensor, turn-off variant 1) |  |  |  | 13.5 |  | 17.2
ACAUGUUGUCCAUGAUAUUACAUGAGGAUCACCCAUGUUAUUGCGAUUUUGAUGUGUAAGUUUGUUGCUCGUCUUAU [JR_STOV1_Sub062] (Eterna round: R97, puzzle: Sensor, turn-off variant 1) |  |  |  | 29.6 |  | 32.6
CUGUGCACGCUGCGGUCCUACAUGAGGAUCACCCAUGUGGUCUGGUGGCGUGGGUCGCCGGACUUGGCUCGUCUUGU [salish99_S_TOV1_R5_024] (Eterna round: R97, puzzle: Sensor, turn-off variant 1) |  |  |  | 18.2 |  | 19.3
GUGCAAUGAGGAUAUACGUUGGUGGGCAUCUGUGUGCUCCUACAUGAGGAUCACCCAUGUAGAAGGCAUGUCAC [LRO-Excl2-19] (puzzle: Exclusion 2) | 11.7 |  |  |  |  | 
GUUUGAUGAGGAUAUCGAGGUUAGUACAUGAGGAUCACCCAUGUUAUCCAGGUGUCGGUUCGAGAAGGUAUUGGAC [LRO-Ex5-15] (puzzle: Exclusion 5) | 18.6 |  |  |  |  | 
UAUACAAAAGAUACCUCGUGACAUGAGGAUCACCCAUGUUUUGAGGAUAUCAGACUUCAUGGUCAUGAGAAGGCAGAGCAUGAU [Tireala] (Eterna round: R96, puzzle: Exclusion NG 3) |  |  |  | 20.4 | 10.1 | 13.6
ACAUGUUAUGUAGGAUAUUAUACACAUGAGGAUCACCCAUGUAACCGGAGGCUUUACUAUGAGUAUGAGAAGGGUAUGAACAUG [Ex NG2 #65] (Eterna round: R96, puzzle: Exclusion NG 2) |  |  |  |  | 64.2 | 
UGGUAACAUGAGGAUCACCCAUGUCAGGAUAUCAGUAAGAAUAGAUUAGAGUAGAAGAUGAGAAGGGACUAUAU [Excluse me! 6 - Jieux - Exclusion 1] (puzzle: Exclusion 1) | 33.8 |  |  |  |  | 
CUUUUGUGAGGAUAUUUGUAGUAAAUAAAUAAAAUUACUACUGAGAAGGCACAUGAGGAUCACCCAUGUUCCUC [salish99_ex4_r3_042] (Eterna round: R96, puzzle: Exclusion 4) |  |  |  | 200 | 24.4 | 28.6
UUAGAUAGGUCAGGAUAUCGAUGAUUGAAUUGUAUGAUUUACAUGAGGAUCACCCAUGUUUUGUACGAGAAGGGACGUUAGAUU [JR_ExcNG2_Sub018] (Eterna round: R96, puzzle: Exclusion NG 2) |  |  |  | 26.7 | 17.6 | 37.2

Sequence | apparent KD of MS2 coat protein [1] [nM] | apparent KD of MS2 coat protein [2] [nM] | apparent KD of MS2 coat protein [3] [nM] | apparent KD of MS2 coat protein (input ligand: FMN 200 uM) [nM] | apparent KD of MS2 coat protein [4] [nM] | apparent KD of MS2 coat protein (input ligand: none) [nM]
UUACGGUAGAUCGUGGCUUUUUGCUCGUCUUGUGCUACAACAUGAGGAUCACCCAUGUAGAGGUGAUCUAUUGUAUU [Grok-var2-20 mod JAL] (puzzle: Sensor v3, turn-off variant 2) | 17.8 | 51.9 | 74.5 |  |  | 
GCUGCGCGAGGAUAUGCGGUUUGCGCUGUGGCCCGUGGCGUACAUGAGGAUCACCCAUGUAGAAGGCGUGCGGG [Apr-15 SS2-56] (puzzle: Exclusion 2) | 10.4 |  |  |  |  | 
ACGUCCCAAGUCAGGAUAUAGGCCGGACAAAGGGACUAGAAGGGACAUGAGGAUCACCCAUGUGGGCAAAAGAC [Terarace] (puzzle: Brourd's mod of Exclusion 4) | 29.4 | 29.4 | 32 |  |  | 
GGAAUACAUGAGGAUCACCCAUGUAAGGAUAUGCUGAAUAACACGGAAUUAACGUGCAGCAGAAGGUACAAAUG [Mat - Mod of my Eli Mod D44] (puzzle: Exclusion 1) | 112 | 105 | 93.2 |  |  | 
AAUUAGCAAGCGAGAUCCCACAUGAGGAUCACCCAUGUGCUCGUCUUAUAAGGUACUGUGACAAAAGUCACGGUACC [Mat - Sensor, turn-off var - Eli Mod - D18] (Eterna round: R97, puzzle: Sensor, turn-off variant 1) |  |  |  | 17.9 |  | 18.1
CACCGUUACAGAGGAUAUGACACAUGAGGAUCACCCAUGUAAUAAAUGAGAAUUUCGAAUGUACCUCAGAAGGCUGGAACCGGC [Ostricism 78 - Jieux - Exclusion NG 2] (Eterna round: R96, puzzle: Exclusion NG 2) |  |  |  | 61.2 | 31.5 | 38.7
CUUAGACAUGAGGAUCACCCAUGUGAGGAUAUGAUGCAGCAGUGGUCUACGCUGUGCAUCAGAAGGCACAUGUG (puzzle: Exclusion 1) | 62.4 |  |  |  |  | 
GAUAGAGAGCAGGAUAUCUUGGAUAAGUAUAGUAGAGAAGGGCUCACAUGAGGAUCACCCAUGUGGUCCUAGAU [JL Dibiri mod 11] (puzzle: Exclusion 6) | 14.9 | 43.8 | 15 |  |  | 
AGUACUAACACGAGAGUGUUAGUACUAUAAGCUUGUGUUACAUGAGGAUCACCCAUGUCCUCAUAAGCUCGUCUUAA [Mat - Sensor v3 - Turn-off var 2 - D64] (puzzle: Sensor v3, turn-off variant 2) | 185 | 33.3 | 35.8 |  |  | 
AACCUGAGGCAAAGCUUUAGGUGUACAUGAGGAUCACCCAUGUAGGAUAUGGUAGGCUUUGCUUACCAGAAGGACAUUAUGAUG [Mat - Exclusion NG 3 - Mod of JL - D50] (Eterna round: R96, puzzle: Exclusion NG 3) |  |  |  | 68.6 | 41.9 | 51.7
GAGUGACAUGAGGAUCACCCAUGUGAGGAUAUCGGACGGACCUUGUUAGCUUCCGCCGCGAGAAGGCACAUCGG [Exclusion 1 V25] (puzzle: Exclusion 1) | 94.3 |  |  |  |  | 
GUCAGACGAGGAUAUGAUGUCAAAGACAUGAGGAUCACCCAUGUGAUCAAUUAAUUAAGAUCAGAAGGCGUCUGAC [E5/2-A3] (Eterna round: R97, puzzle: Exclusion 5) |  |  |  | 172 |  | 222
UAUGUCUUUGUGAGGAUAUACUUUGUUUGGUCGUAGUAGAAGGCACAUGAGGAUCACCCAUGUAGAUUUUUGGU [JR_BME4_Sub011] (puzzle: Brourd's mod of Exclusion 4) | 20.1 |  |  |  |  | 
AGUACCUGAGUACAAUGUAACAUGAGGAUCACCCAUGUAAUUGGGUGAGAACAAGCUCACCGUUCGUCUUAAAUAAA [JL turnoff v1 80] (Eterna round: R96, puzzle: Sensor v2, turn-off variant) |  |  |  | 485 | 55.3 | 501
AGACAGUCAGGAUAUACAUGAGGAUCACCCAUGUUGAGAUGUGAAAGGGCAGGAAUAGGUAGAAGGGACGAGAG [JR_Exclu3_Sub038] (puzzle: Exclusion 3) | 30.6 |  |  |  |  | 
